Consider 13 molecules from patent US20190248902A1 (published 2019).

Where a chain is given by its changes, count along the chain named.

T1: recombinant, soluble human ASGR-1 (human, UniProt P07306 62-291)
T1 construct: biotinylated in the binning assay; also called soluble huASGR-1; Soluble ASGR-1 (Amgen)
T1 sequence: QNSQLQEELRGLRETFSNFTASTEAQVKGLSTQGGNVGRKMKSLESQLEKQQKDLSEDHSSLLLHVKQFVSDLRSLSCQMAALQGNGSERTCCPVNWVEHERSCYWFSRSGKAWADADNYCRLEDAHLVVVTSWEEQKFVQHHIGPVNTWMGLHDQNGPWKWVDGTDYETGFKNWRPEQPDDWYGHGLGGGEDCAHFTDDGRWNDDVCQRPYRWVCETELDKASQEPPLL

T2: human ASGR-1 (human, UniProt P07306 1-291)
T2 construct: Stably expressed on CHO-S cells (CHO-S:huASGR-1); The method text says human or mouse ASGR-1 cells were used; also called huASGR-1; hASGR-1
T2 sequence: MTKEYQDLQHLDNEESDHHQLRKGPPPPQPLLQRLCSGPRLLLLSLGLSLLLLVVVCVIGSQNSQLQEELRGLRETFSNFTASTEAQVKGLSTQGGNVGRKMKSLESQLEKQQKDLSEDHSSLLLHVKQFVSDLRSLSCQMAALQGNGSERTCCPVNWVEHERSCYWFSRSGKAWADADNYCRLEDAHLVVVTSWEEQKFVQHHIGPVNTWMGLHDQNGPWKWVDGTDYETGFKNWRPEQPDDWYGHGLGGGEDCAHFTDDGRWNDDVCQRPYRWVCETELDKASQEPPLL

B1: 52D10 (antibody, V domains shown)
VH: QVQLVESGGGVVQPGRSLRLSCAASGFTFSSYGMHWVRQAPGKGLEWVALIWYDGSNKYHADSVKGRFTISRDNSKNTLYLQMNSLRAEDTAVYYCARRYSSSWSGGMDVWGQGTTVTVSS
VL: DVMMTQIPLSLSVTPGQPASISCKSSQSLLHSEGKTYLYWYLQKPGQPPQLLIFEVSNRVSGVPDRFSGRGSGTDFTLKISRVEAEDVGVYYCMQSIQYPITFGQGTRLEIK
notes: hybridoma mAb
B2: 65C12 (antibody, V domains shown)
VH: EVQLVESGGGLVKPGGSLRLSCAASGFTFRSFSLNWVRQAPGKGLEWVSSISSSSSYIYYADSVKGRFTISRDNAKNSLYLQMNSLRAEDTAVYYCARDAYSHYWGQGTLVTVSS
VL: EIVMTQSPATLSVFPGEGATLSCRASQSVSINLAWYQQKPGQAPRLLIYGASTRATGIPARFNASGSGTEFTLSISSLQSENFAVYYCQQYNTWPLTFGGGTKVEIK
notes: hybridoma mAb
B3: 196F4 (antibody, V domains shown)
VH: EVQLLESGGGLVQPGGSLRFSCAASGFTFSSCAMTWVRQAPGKGLEWVSAISGSGGSTYYADSVKGRFTISRDNSKNTLYLQMNSLRAEDTAVYYCAKVGGLTGSYYYYGMDVWGQGTTVTVSS
VL: DFQMIQSPSSLSASVGDRVTITCRASQRIHSYLNWYQQKPGKAPKLLIYTASSLQGGVPSRFSGSGSGTDFTLTISSLQPEDFATYYCQQSYGSPLTFGGGTKVEIK
notes: hybridoma mAb
B4: 202A3 (antibody, V domains shown)
VH: QVQLEQSGAEVKKPGASVKVSCKASGYTFTSYDINWVRQATGQGLEWLGWMNPKRGNTGYAQKFQGRVTMTRNTSISTAHMELSSLRSEDTAVYYCARGRYSREDYYYYYDMDVWGQGTTVTVSS
VL: DIQMSQSPSSLSASVGDRVTITCRASQGIRNDLGWYQQKPGKAPKRLICAASRLQSGVPSRFSGSGSGTEFTLTISSLQPEDFAIYYCLQHHDYPFTFGPGTKVDIK
notes: hybridoma mAb
B5: 194C10 (antibody, V domains shown)
VH: QVQLQQWGAGLLKPSETLSLTCAVSGGSFRYYYWSWIRQPPGKGLEWFGEINHSGSTNYNPSLKSRVTISIDTSKNQFSLKLRSVTAADTAVYYCARDYGAFDIWGQGTMVTVSS
VL: EIVLTQSPGTLSLSPGERATLSCRASPSVNSGYLAWYQQKPGQTPRLLIFGASSRATGIPDRFSASGSGADFTLTISRLEPEDFAVYFCQQYESSPWTFGQGTKVEIK
notes: hybridoma mAb
B6: 198D2 (antibody, V domains shown)
VH: QVQLVESGGGVVQPGRSLRLSCAASGFTFRSYGMHWVRQAPGKGLEWVAVIIYDGSYKYYADSVKGRFTISRDNSKNTLYLQMNSLRAEDTAVYYCARTYSGGMDVWGQGTTVTVSS
VL: QSVLTQPPSVSAAPGQKVTISCSGSSSNIGSNYVSWYQQLPGTAPKVLIYDNNKRPSGIPDRFSGSKSGTSATLGITGLQTGDEADYYCGTWDSRLNVGVFGGGTKLTVL
notes: hybridoma mAb
B7: 227C1 (antibody, V domains shown)
VH: QVQLVQSGAEVKKPGASVKVSCKASGYTFTGYYTHWVRQAPGQGLEWMGWINPYSGGTNYAQKFQGRVTMTRDTSISTAYMELSRLRFDDTAVYYCARDWGGYSSYYYGMDVWGQGTTVTVSS
VL: DIVMTQTPLSLSVTPGQPASISCKSSQSLLHSDGKTFLYWYLQKPGQPPQLLIYEISNRFSGVPDRFSGSGSGTDFTLKISRVEAEDVGIYYCMQSTQLPRTFGQGTKVEIK
notes: hybridoma mAb
B8: 176H4 (antibody, V domains shown)
VH: QVQLVESGGGVVQPGRSLRLSCAASGFTFSSYGMHWVRQAPGKGLEWVAIIWYDGSYKYYADSVKGRFTISRDNSKNTLYLQMSSLRAEDTAVYYCARDAHDFWSGYFAYWGQGALVTVSS
VL: B7 VL with S32G, F37Y, I56V, T97I, L99I, R101W, K108R
notes: hybridoma mAb
B9: 227F2 (antibody, V domains shown)
VH: B7 VH with Q3H, T34I, G57D, N59K, Y94F
VL: B7 VL
notes: hybridoma mAb
B10: 5E5 (antibody, V domains shown)
VH: QVQLVESGGGVVQPGRSLRLSCAASGFTFSNYVMHWVRQAPGKGLEWVAVIWYDGSNKYYADSVKGRFTISRDNSKNTLYLQMNSLRAEDTAVYYCTREVYSSGWYDYGMDVWGQGTTVTVSS
VL: B4 VL with S5T, C49Y, R53S, I85T, H92Y, D93S, F96R, P100Q, D105E, I106V
B11: 7F4 (antibody, V domains shown)
VH: QLQLQESGPGLVKPSETLSLTCTVSGGSISRSSYYWGWIRQPPGKGLEWIGNIYYSGATYYNPSLKSRVTISVDTSTNQFSLKLSSVTAADTAVYYCARHSGSWSLDYWGQGTLVTVSS
VL: B4 VL with S5T, A25T, C49Y, R53N, I85T, H92S, D93A, F96L, P100G, D105E
B12: 7G4 (antibody, V domains shown)
VH: B10 VH with S30N, N84T, T97A, V100K, G104N
VL: DIQMTQSPSSLSASVGDRVTITCRASQGIRNDLGWYQQRPGKAPKRLIYAASSLQSGVPSRFSGSGSGTEFTLTISSLQPEDSATYYCLHQYSYPRTFGQGTKVEIK
B13: 6G7 (antibody, V domains shown)
VH: QVQLVESGGGVVQPGRSLRLSCAASGFTFSSYGMHWVRQTPGKGLEWVAIISYVGKNKYYADSVKGRFTISRDNSKNTLYLQMNSLRAEDTAVYYCARRGNSYGGYGMDVWGQGTTVTVSS
VL: DIQMTQSPSSRSASVGDRVTITCQASQDISNYLNWCQQKPGKALKLLIYDASTLETGVPSRFSGSGSGTDFTFTISSVQPEDIATYYCQQYDNVPITFGQGTRLEIK

For the first assay, the target named is T1, recombinant, soluble human ASGR-1. The assay can be described thus: Octet BLI dissociation, pH 7.4 minus calcium. Summed up: (§1)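 Antibodies were captured on anti-human Fc biosensors, and soluble ASGR-1 (6 ug/ml) was associated for 2 min in Tris buffer containing 1 mM CaCl2 at pH 7.4, followed by 10 min dissociation under each test condition. The signal at the end of association was set as 100%. Percent ASGR-1 still bound after 1 min of dissociation was compared with the pH 7.4 plus calcium control, and >10% extra dissociation was scored as sensitive.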
On to B1, for which the “% Change Compared to pH 7.4 + Calcium” value was determined as 21%.

Consider B2, for which the “% Change Compared to pH 7.4 + Calcium” value stood at 13%.

As for B3, the “% Change Compared to pH 7.4 + Calcium” value was -8%.

As to B4, the “% Change Compared to pH 7.4 + Calcium” value is -21%.

In the case of B5, the “% Change Compared to pH 7.4 + Calcium” value is 2%.

On to B6, for which the “% Change Compared to pH 7.4 + Calcium” value was -8%.

Take B7: the “% Change Compared to pH 7.4 + Calcium” value is 100%.

On to B8, for which the “% Change Compared to pH 7.4 + Calcium” value turned out to be 2%.

For the molecule B9, the “% Change Compared to pH 7.4 + Calcium” value was determined as 80%.

The target is the same in a further assay. The assay can be described thus: Octet BLI dissociation, pH 5.6 minus calcium. A digest of the protocol:
as §1
A general note: BLI is a label-free optical method that tracks binding on a fibre tip over time.
Regarding B1, the “% Change Compared to pH 7.4 + Calcium” value was found to be 45%.

Consider B2, for which the “% Change Compared to pH 7.4 + Calcium” value came to 23%.

Take B3: the “% Change Compared to pH 7.4 + Calcium” value was -6%.

For the molecule B4, the “% Change Compared to pH 7.4 + Calcium” value was -23%.

Consider B5, for which the “% Change Compared to pH 7.4 + Calcium” value turned out to be 16%.

As for B6, the “% Change Compared to pH 7.4 + Calcium” value is -28%.

In the case of B7, the “% Change Compared to pH 7.4 + Calcium” value was determined as 73%.

On to B8, for which the “% Change Compared to pH 7.4 + Calcium” value came to 26%.

B9: the “% Change Compared to pH 7.4 + Calcium” value worked out at 100%.

For another assay, the target named is T2, human ASGR-1. The assay can be described thus: FACS ligand blocking on CHO-S ASGR-1 cells; competitor biotinylated asialofetuin. The method, then: (§2) All ASGR-1 antibodies that bound either human or mouse ASGR-1 stable CHO—S cells were then tested for ligand blocking using both a protein ligand and a synthetic sugar ligand. The method in brief is as follows: first, 20 ul of either CHO-Shuman or mouse ASGR-1 cells were added to wells of a 384 well plate (30 k cells/well) followed by spin and discarding the supernatant. Second, 10 ul of the antibodies (either purified from hybridoma supernatants or made recombinantly) were added in duplicate to the cells in a dilution series (200 nM top concentration, 1:2 serial dilution, 11 point curve) and were incubated for 30 min at 4 C. […] After 30 min incubation at 4C, the plate was spun and washed twice with FACS buffer+1 mM CaCl2 followed by the detection streptavidin-AF647 at 1:1000 dilution. After 30 min at 4C, the cells were spun and washed once and then 60 ul PI added at 1:1000 dilution and the plates delivered to a core flow cytometry facility. The plates were read and processed similarly to the cell binding method except the signal now represents an inhibition curve and typically decreases a function of increasing antibody concentration. IC50 nM potency and % Inhibition were reported. […] Differences in the ability of antibodies to block these two ligands could occur as a result of differences in, for example, avidity stemming from differences in the number and/or orientation of the ASGR binding terminal sugar residues of each ligand, steric hindrance between antibody and each ligand, and/or changes in the conformation of ASGR induced by antibody binding that selectively alters the binding of each ligand.
Consider B10, for which the % Inhibition – broadly, the change of the read-out against control, counted positive when it falls – was 95%.

For B11, the “% Inhibition” value turned out to be 99% and the IC50 – broadly, the concentration that inhibits the measured activity by half – worked out at 2.6 nM.

On to B12, for which the “% Inhibition” value turned out to be 96% and the half-maximal inhibitory concentration (IC50) is 14 nM.

On to B13, for which the “% Inhibition” value stood at 99% and the IC50 came out at 11 nM.

A further assay concerns the target T1, recombinant, soluble human ASGR-1. The assay can be described thus: Octet BLI dissociation, pH 5.6 plus calcium. Summed up:
as §1
With B1, the “% Change Compared to pH 7.4 + Calcium” value stood at 3%.

On to B2, for which the “% Change Compared to pH 7.4 + Calcium” value came to 0%.

Turning to B3, the “% Change Compared to pH 7.4 + Calcium” value is -5%.

In the case of B4, the “% Change Compared to pH 7.4 + Calcium” value was -22%.

Regarding B5, the “% Change Compared to pH 7.4 + Calcium” value was 10%.

Consider B6, for which the “% Change Compared to pH 7.4 + Calcium” value is -30%.

In the case of B7, the “% Change Compared to pH 7.4 + Calcium” value was found to be 54%.

Consider B8, for which the “% Change Compared to pH 7.4 + Calcium” value was -4%.

On to B9, for which the “% Change Compared to pH 7.4 + Calcium” value worked out at 50%.

The target of another assay is T2, human ASGR-1. The assay can be described thus: FACS ligand blocking on CHO-S ASGR-1 cells; labelled ligand biotin-GalNAc-PAA (synthetic sugar). How it is done: as §2
As to B10, the “% Inhibition” value came out at 0%.

Take B11: the “% Inhibition” value was found to be 30% and the IC50 stood at 0.24 nM.

Take B12: the “% Inhibition” value is -30% and the IC50 stood at 20 nM.

In the case of B13, the “% Inhibition” value came out at 0% and the IC50 was over 200 nM.
